Assay [1] deals with T1, hen egg-white lysozyme (hen, UniProt P00698 19-147).
T1 construct: also called HEL
Briefly: fluorescence titration in solution, 0.3 µM conjugate, buffer C, 25 °C.

In assay [2] the target is T1, hen egg-white lysozyme. Briefly: from Kd in solution: fluorescence titration of conjugate against competition Biacore of H4S(wt). On the technique in general: Surface plasmon resonance follows binding to a sensor surface in real time, without labels.
Assay [3] has as its target T2, hen egg-white lysozyme (HEL) (Gallus gallus, UniProt P00698).
T2 construct: hen egg-white lysozyme (HEL); purchased Sigma
In words: Titration of H4S conjugates with HEL, monitored by fluorescence. The assay is classed as binding. To be noted: relative sensitivity of the conjugate at a fixed concentration of 0.3 µM (Equation 8), HEL, buffer C. The procedure: The binding and fluorescence experiments were performed at equilibrium as if the preparations of conjugates were homogeneous, i. e. as if yc = 1. The binding reactions were conducted by incubating 0.3 µM of conjugate with variable concentrations of the HEL or BSA antigens in a volume of 1 mL, for 30 min in the dark with gentle shaking. The reactions were carried out in Buffer C or in a mixture v:(1-v) of calf serum and Buffer C as indicated in example 2.
The conjugate (or biosensor) B and antigen A form a 1:1 complex B:A according to the reaction: B + A↔B:A [formula] At equilibrium, the concentration [B:A] of the complex is given by the equation: [B:A] = 0.5{[B]0+[A]0+Kd-(((([B]0+[A]0+Kd))^2-4[B]0[A]0))^(1/2)} [formula] where Kd is the dissociation constant, and [A]0 and [B]0 are the total concentrations of A and B, respectively (Renard et al., 2003).
The fluorescence of the IANBD conjugates was excited at 485 nm (5 nm slit width) and its intensity measured between 520 and 550 nm (20 nm slit width) with a FP-6300 spectrofluorometer (Jasco). The signal of HEL alone or BSA alone was measured in an independent experiment and subtracted from the global signal of the binding mixture to give the specific fluorescence intensity F of each conjugate. The intensity F at a given value of [A]0 satisfies the following equation: (F-F0)/F0 = ΔF/F0 = (ΔF∞/F0)([B:A]/[B]0) [formula] where F0 and F∞ are the values of F at zero and saturating concentrations of A (Renard et al., 2003). The values of ΔF∞/F0, Kd, and [B]0 could be determined by fitting Equation 5, in which [B:A] is given by Equation 4, to the experimental values of ΔF/F0, measured in a titration experiment. The fittings were performed with the Kaleidagraph software (Synergy Software).
The sensitivity s and relative sensitivity sr of a conjugate can be defined by the following equations for the low values of [A]0, i. e. in the initial part of the titration curve: ΔF = s[A]0 [formula] ΔF/F0 = sr [A]0 /[B]0 [formula] s and sr can be expressed as functions of characteristic parameters of the conjugate: sr = (ΔF∞/F0)([B]0/(Kd+[B]0)) [formula] s = fb sr [formula] where fb = F0/[B]0 is the molar fluorescence of the free conjugate (Renard and Bedouelle, 2004). Equation 8 implies that sr is maximal when the biosensor B is present at a concentration [B]0 >> Kd, as every newly titrated molecule A then forms a complex. Equation 6 implies that the lower limit of detection δ[A]0 of the conjugate is linked to the lower limit of measurement of the spectrofluorometer δF by the following equations: δ[A]0 = s^-1 δF = sr^-1 [B]0 (δF/F0) [formula]

The target of assay [4] is bovine serum albumin (BSA) (Bos taurus, UniProt P02769). In words: Specificity: titration of H4S conjugates with heterologous antigen BSA, monitored by fluorescence.
Assay [5] deals with T1, hen egg-white lysozyme. In words: Biacore kinetics, HEL immobilised; Kd' = koff/kon.
Assay [6] has as its target T1, hen egg-white lysozyme. In words: Biacore, HEL immobilised; Kd'' dissociation constant at steady state.
For assay [7], the target named is T1, hen egg-white lysozyme. Briefly: Biacore kinetics, HEL immobilised on CM5 chip, buffer E (reducing), 25 °C, 1:1 Langmuir model.
For the next assay, the target named is T3, bovine serum albumin (bovine, UniProt P02769 25-607).
T3 construct: Heterologous antigen used as specificity control; also called BSA
In words: fluorescence titration with BSA, 0.3 µM conjugate, buffer C.

Several values for one entry are separate records, joined by “and”; a condition that tells them apart may be missing. Equal entries are not always repeated.

The Kd is the concentration at which binding is half-saturated. As usually defined, the koff is the rate constant with which the complex falls apart. As usually defined, the kon is the rate constant with which the complex forms.

B1: H4S conjugate, IANBD fluorophore coupled at position Leu31 (designed binder)
chain: MRGSHHHHHHGSVKVKFFWNGEEKEVDTSKIVWVKRAGKSVCFIYDDNGKNGYGDVTEKDAPKELLDMLARAEREKKLN
modifications: Cys at position 31 (H4S numbering) coupled to IANBD ester (ANBD)
For B1, in the assay with hen egg-white lysozyme [1], the Kd came out at 8360 nM and the “ΔF∞/F0 (maximal relative variation of fluorescence on HEL binding)” value is 4.9. In the assay with hen egg-white lysozyme [2], the “ΔΔG (conjugate against H4S(wt))” value was at least 1.5 kcal/mol.

B2: Ala26: H4S conjugate: residue Ala26 changed into cysteine and coupled with IANBD (SEQ ID NO: 62) (conjugate)
chain: MRGSHHHHHHGSVKVKFFWNGEEKEVDTSKIVWVKRCGKSVLFIYDDNGKNGYGDVTEKDAPKELLDMLARAEREKKLN
modifications: IANBD fluorophore on Cys26
B2: in assay [3], the sr is 4.66. Besides, in assay [4] (BSA as antigen, buffer C, 0.3 µM conjugate), the “ΔF∞/F0” value was 0.73 ± 0.04. The “relative sensitivities sr lower for BSA than for HEL” value in assay [4] ([B]0 = 0.3 µM) worked out at 36 fold.

B3: H4S conjugate, IANBD fluorophore coupled at position Lys39 (designed binder)
chain: MRGSHHHHHHGSVKVKFFWNGEEKEVDTSKIVWVKRAGKSVLFIYDDNGCNGYGDVTEKDAPKELLDMLARAEREKKLN
modifications: Cys at position 39 (H4S numbering) coupled to IANBD ester (ANBD)
Turning to B3, in the assay with hen egg-white lysozyme [1], the Kd was 126 nM and the “ΔF∞/F0 (maximal relative variation of fluorescence on HEL binding)” value came to 1.65. For the same molecule, the “ΔΔG (conjugate against H4S(wt))” value in the assay with hen egg-white lysozyme [2] is ≥ 0.5 kcal/mol and ≤ 1.2 kcal/mol.

B4: H4S cysteine mutant V21C (not conjugated) (designed binder)
chain: MRGSHHHHHHGSVKVKFFWNGEEKEVDTSKICWVKRAGKSVLFIYDDNGKNGYGDVTEKDAPKELLDMLARAEREKKLN
notes: Free cysteine mutant, measured in reducing conditions
Molecule B4 showed a Kd with hen egg-white lysozyme [5] of 332 nM. The affinity with hen egg-white lysozyme [6], expressed as Kd, was 389 nM. In the assay with hen egg-white lysozyme [7], the koff was 0.011 s⁻¹ and the kon turned out to be 40000 M⁻¹ s⁻¹.

B5: H4S conjugate, IANBD fluorophore coupled at position Trp8 (designed binder)
chain: MRGSHHHHHHGSVKVKFFCNGEEKEVDTSKIVWVKRAGKSVLFIYDDNGKNGYGDVTEKDAPKELLDMLARAEREKKLN
modifications: Cys at position 8 (H4S numbering) coupled to IANBD ester (ANBD)
Regarding B5, in the assay with hen egg-white lysozyme [1], binding was characterised by a dissociation constant (Kd) of 189 nM and the “ΔF∞/F0 (maximal relative variation of fluorescence on HEL binding)” value was 1.47. In addition, in the assay with hen egg-white lysozyme [2], the “ΔΔG (conjugate against H4S(wt))” value is ≥ 0.5 kcal/mol and ≤ 1.2 kcal/mol.

B6: H4S conjugate, IANBD fluorophore coupled at position Tyr42 (designed binder)
chain: MRGSHHHHHHGSVKVKFFWNGEEKEVDTSKIVWVKRAGKSVLFIYDDNGKNGCGDVTEKDAPKELLDMLARAEREKKLN
modifications: Cys at position 42 (H4S numbering) coupled to IANBD ester (ANBD)
Regarding B6, in the assay with hen egg-white lysozyme [1], binding was characterised by a dissociation constant (Kd) of 2480 nM and the “ΔF∞/F0 (maximal relative variation of fluorescence on HEL binding)” value turned out to be 6.6. Besides, the “ΔΔG (conjugate against H4S(wt))” value with hen egg-white lysozyme [2] is at least 1.5 kcal/mol.

B7: H4S conjugate, IANBD fluorophore coupled at position Phe7 (designed binder)
chain: MRGSHHHHHHGSVKVKFCWNGEEKEVDTSKIVWVKRAGKSVLFIYDDNGKNGYGDVTEKDAPKELLDMLARAEREKKLN
modifications: Cys at position 7 (H4S numbering) coupled to IANBD ester (ANBD)
Turning to B7, in the assay with hen egg-white lysozyme [1], the Kd worked out at 42 nM and the “ΔF∞/F0 (maximal relative variation of fluorescence on HEL binding)” value amounted to 0.26. Moreover, the “ΔΔG (conjugate against H4S(wt))” value with hen egg-white lysozyme [2] was at most 0.5 kcal/mol.

B8: H4S cysteine mutant W8C (not conjugated) (designed binder)
chain: MRGSHHHHHHGSVKVKFFCNGEEKEVDTSKIVWVKRAGKSVLFIYDDNGKNGYGDVTEKDAPKELLDMLARAEREKKLN
notes: as for B4
In the case of B8, the values for the Kd in the assay with hen egg-white lysozyme [5] and with hen egg-white lysozyme [6] were 68 nM and 66 nM, respectively. Further, the koff with hen egg-white lysozyme [7] worked out at 0.03 s⁻¹. Further, in the assay with hen egg-white lysozyme [7], the kon stood at 450000 M⁻¹ s⁻¹.

B9: H4S conjugate, IANBD fluorophore coupled at position Thr46 (designed binder)
chain: MRGSHHHHHHGSVKVKFFWNGEEKEVDTSKIVWVKRAGKSVLFIYDDNGKNGYGDVCEKDAPKELLDMLARAEREKKLN
modifications: Cys at position 46 (H4S numbering) coupled to IANBD ester (ANBD)
Take B9: in the assay with hen egg-white lysozyme [1], binding was put at a Kd of 100 nM and the “ΔF∞/F0 (maximal relative variation of fluorescence on HEL binding)” value was determined as 0.36. In the assay with hen egg-white lysozyme [2], the “ΔΔG (conjugate against H4S(wt))” value is at most 0.5 kcal/mol.

B10: H4S conjugate, IANBD fluorophore coupled at position Val21 (designed binder)
chain: MRGSHHHHHHGSVKVKFFWNGEEKEVDTSKICWVKRAGKSVLFIYDDNGKNGYGDVTEKDAPKELLDMLARAEREKKLN
modifications: Cys at position 21 (H4S numbering) coupled to IANBD ester (ANBD)
As to B10, in the assay with hen egg-white lysozyme [1], binding was put at a Kd of 296 nM and the “ΔF∞/F0 (maximal relative variation of fluorescence on HEL binding)” value is 6.3. In the assay with hen egg-white lysozyme [2], the “ΔΔG (conjugate against H4S(wt))” value was ≥ 0.5 kcal/mol and ≤ 1.2 kcal/mol.

B11: H4S conjugate, IANBD fluorophore coupled at position Ser29 (designed binder)
chain: MRGSHHHHHHGSVKVKFFWNGEEKEVDTSKIVWVKRAGKCVLFIYDDNGKNGYGDVTEKDAPKELLDMLARAEREKKLN
modifications: Cys at position 29 (H4S numbering) coupled to IANBD ester (ANBD)
Turning to B11, in the assay with hen egg-white lysozyme [1], the dissociation constant Kd was 33 nM and the “ΔF∞/F0 (maximal relative variation of fluorescence on HEL binding)” value came out at 0.55. Also, the “ΔΔG (conjugate against H4S(wt))” value with hen egg-white lysozyme [2] is at most 0.5 kcal/mol.

B12: H4S(K24C) (not conjugated) (designed binder)
chain: MRGSHHHHHHGSVKVKFFWNGEEKEVDTSKIVWVCRAGKSVLFIYDDNGKNGYGDVTEKDAPKELLDMLARAEREKKLN
notes: as for B4
Take B12: the Kd in the assay with hen egg-white lysozyme [5] stood at 117 nM; with hen egg-white lysozyme [6] it was 104 nM. In the assay with hen egg-white lysozyme [7], this molecule returned a koff of 0.023 s⁻¹. In addition, the kon in the assay with hen egg-white lysozyme [7] came out at 160000 M⁻¹ s⁻¹.

B13: H4S conjugate, IANBD fluorophore coupled at position Lys28 (designed binder)
chain: MRGSHHHHHHGSVKVKFFWNGEEKEVDTSKIVWVKRAGCSVLFIYDDNGKNGYGDVTEKDAPKELLDMLARAEREKKLN
modifications: Cys at position 28 (H4S numbering) coupled to IANBD ester (ANBD)
On to B13, for which, in the assay with hen egg-white lysozyme [1], the affinity, expressed as Kd, was 28 nM and the “ΔF∞/F0 (maximal relative variation of fluorescence on HEL binding)” value turned out to be 0.26. Moreover, in the assay with hen egg-white lysozyme [2], the “ΔΔG (conjugate against H4S(wt))” value is at most 0.5 kcal/mol.

B14: H4S cysteine mutant K39C (not conjugated) (designed binder)
chain: MRGSHHHHHHGSVKVKFFWNGEEKEVDTSKIVWVKRAGKSVLFIYDDNGCNGYGDVTEKDAPKELLDMLARAEREKKLN
notes: as for B4
B14: the Kd in the assay with hen egg-white lysozyme [5] turned out to be 38 nM. For the same molecule, binding with hen egg-white lysozyme [6] was put at a Kd of 24 nM. Also, in the assay with hen egg-white lysozyme [7], the koff came out at 0.012 s⁻¹ and the kon was determined as 310000 M⁻¹ s⁻¹.

B15: H4S cysteine mutant A26C (not conjugated) (designed binder)
chain: MRGSHHHHHHGSVKVKFFWNGEEKEVDTSKIVWVKRCGKSVLFIYDDNGKNGYGDVTEKDAPKELLDMLARAEREKKLN
notes: as for B4
B15 registered a Kd with hen egg-white lysozyme [5] of 60 nM. This molecule showed a Kd with hen egg-white lysozyme [6] of 54 nM. In the assay with hen egg-white lysozyme [7], this molecule returned a koff of 0.023 s⁻¹ and a kon of 380000 M⁻¹ s⁻¹.

B16: H4S(A26ANBD) (designed binder)
chain: MRGSHHHHHHGSVKVKFFWNGEEKEVDTSKIVWVKRCGKSVLFIYDDNGKNGYGDVTEKDAPKELLDMLARAEREKKLN
modifications: Cys at position 26 (H4S numbering) coupled to IANBD ester (ANBD)
notes: also called Ala26
In the case of B16, the Kd in the assay with bovine serum albumin turned out to be 1400 nM; with hen egg-white lysozyme [1], 206 nM. For the same molecule, the “ΔF∞/F0 (maximal relative variation of fluorescence on HEL binding)” value with hen egg-white lysozyme [1] was 7.9. The “ΔΔG (conjugate against H4S(wt))” value with hen egg-white lysozyme [2] was ≥ 0.5 kcal/mol and ≤ 1.2 kcal/mol.

For the origin of these results see patent EP2469278A1, “Reagentless fluorescent biosensors from nanofitins, rational design methods to create reagentless fluorescent biosensors and methods of their use” (Institut Pasteur, priority 2010, dated 2012).
